For the assay, the target named is human His6-TfR1, P02786. In words: SPR. The conditions noted are these: chain shown with the change.

These results are taken from publication PMC11983102, “Conjugation to a transferrin receptor 1-binding Bicycle peptide enhances ASO and siRNA potency in skeletal and cardiac muscles” (Nucleic Acids Research, 2025).

The Kd is the free concentration of one partner at which half of the binding sites on the other are occupied at equilibrium, for simple one-to-one binding.

human His6-TfR1, P02786, sequence (P02786 89-760): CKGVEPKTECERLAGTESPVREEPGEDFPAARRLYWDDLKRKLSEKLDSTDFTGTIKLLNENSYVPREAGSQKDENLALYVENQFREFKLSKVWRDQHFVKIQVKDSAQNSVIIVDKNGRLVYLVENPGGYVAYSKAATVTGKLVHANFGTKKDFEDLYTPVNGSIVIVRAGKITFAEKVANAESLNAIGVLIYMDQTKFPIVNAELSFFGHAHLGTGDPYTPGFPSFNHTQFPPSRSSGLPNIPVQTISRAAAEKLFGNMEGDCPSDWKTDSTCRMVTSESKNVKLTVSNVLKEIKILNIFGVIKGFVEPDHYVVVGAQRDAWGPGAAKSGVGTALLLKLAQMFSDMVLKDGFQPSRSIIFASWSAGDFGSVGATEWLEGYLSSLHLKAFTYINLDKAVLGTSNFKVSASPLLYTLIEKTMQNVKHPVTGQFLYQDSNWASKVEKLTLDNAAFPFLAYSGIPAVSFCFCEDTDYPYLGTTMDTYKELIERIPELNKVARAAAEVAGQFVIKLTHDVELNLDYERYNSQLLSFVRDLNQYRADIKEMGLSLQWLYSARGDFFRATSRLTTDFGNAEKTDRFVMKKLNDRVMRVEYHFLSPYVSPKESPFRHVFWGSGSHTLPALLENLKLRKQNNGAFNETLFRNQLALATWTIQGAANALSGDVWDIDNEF

As for CSPDAHLGCISYC [BCY15468 Ni:A del; Ti:A del; Nii:Ac (N-terminal acetyl cap)], the Kd turned out to be 46 nM. This lies in the double-digit nanomolar range.
